Substrate in series [1]: OC[C@H]1O[C@H](OC[C@H]2O[C@H](O[C@]3(CO)O[C@H](CO)[C@@H](O)[C@@H]3O)[C@H](O)[C@@H](O)[C@@H]2O)[C@H](O)[C@@H](O)[C@H]1O
In words: coupled hexokinase / glucose-6-phosphate dehydrogenase / phosphoglucose isomerase assay of released fructose; Michaelis-Menten fit. It is filed as biochemical, Trichomonas vaginalis. Particulars: 20 mM sodium acetate, pH 5.0, 30 °C, ~27 nM enzyme. From the text:
coupled hexokinase / glucose-6-phosphate dehydrogenase / phosphoglucose isomerase assay of released fructose; Michaelis-Menten fit on T. vaginalis β-fructofuranosidase

Substrate in series [2]: OC[C@H]1O[C@@](CO)(O[C@H]2O[C@H](CO)[C@@H](O)[C@H](O)[C@H]2O)[C@@H](O)[C@@H]1O
Description: coupled hexokinase / glucose-6-phosphate dehydrogenase assay of released glucose; Michaelis-Menten fit. It is filed as biochemical, Trichomonas vaginalis. Particulars: 20 mM sodium acetate, pH 5.0, 30 °C, ~27 nM enzyme. From the text:
coupled hexokinase / glucose-6-phosphate dehydrogenase assay of released glucose; Michaelis-Menten fit on T. vaginalis β-fructofuranosidase

B1: T. vaginalis β-fructofuranosidase (Trichomonas vaginalis G3) (protein)
chain: MNFSSRLKFHFEPLKGWMNDPNGLIQFKGEYHAFFQHYPFDTKWGPMHWGHATSKDLIHWEHKPIALYPDQEYENNGGCFSGSAIEFNDKLHIFYTGVGKSNGQSQCHAVMQDENRFIKDPKNPIIKSPPIEYGINDFRDPKVVKIENTFYMVVGTGKDGIGRVLLYKSSNLENWTFLNLLVEGKEYGQCCECPDLIQIDNQFFLMFSQMTGQGIGTLFFHLKYENGTFTVDKKLNQPIIGPDFYAPQTFHDDKGRRIIIGWLYNWKRVPPKEVDYAGAFTIPCELKYKEGKIVVNPIDEISHELKSESKFVEIQENKLIINGKPSVIHEGKIENIKILEDVKTIEVWINNGEFYYSTWLF
notes: E. coli BL21(DE3); IMAC; calculated 44 kDa
For orientation: Km means the concentration of substrate that gives half-maximal velocity. In general, Vmax refers to the top rate of the reaction or transport when substrate is in excess. The kcat is the maximal rate divided by the concentration of active sites. For B1, in series [1], the Km amounted to 5.5 ± 0.9 mM, the Vmax stood at 368 µmol/min/mg and the kcat is 270 ± 12 s⁻¹. In series [2], the Km was 20.6 ± 2.2 mM, the Vmax is 1580 µmol/min/mg and the kcat was found to be 1160 ± 36 s⁻¹.
